Laboratory results reported in PMC12691273.

Molecular target: CRM1 protein (chromosome region maintenance 1)
Experiment: co-immunoprecipitation (IP FOXO1, WB CRM1), band quantification
Conditions: chicken granulosa cells, with 740-Y-P; n = 3; parent: est. 1.9; read off a plot

response | Substance
2 | chicken forkhead box O1 (FOXO1) wild-type (from UniProt A0A8V0XGP1) S248A
2 | chicken forkhead box O1 (FOXO1) wild-type (from UniProt A0A8V0XGP1) S311A
